One variant from IntAct's records for PubMed 19524571 can be followed below.

Sequences and labels used below:
B1: Cyclin-dependent kinase 14 (Homo sapiens), O94921 (parent)
chain: MCDLIEPQPAEKIGKMKKLRRTLSESFSRIALKKDDTTFDEICVTKMSTRNCQGMDSVIKPLDTIPEDKKVRVQRTQSTFDPFEKPANQVKRVHSENNACINFKTSSTGKESPKVRRHSSPSSPTSPKFGKADSYEKLEKLGEGSYATVYKGKSKVNGKLVALKVIRLQEEEGTPFTAIREASLLKGLKHANIVLLHDIIHTKETLTLVFEYVHTDLCQYMDKHPGGLHPDNVKLFLFQLLRGLSYIHQRYILHRDLKPQNLLISDTGELKLADFGLARAKSVPSHTYSNEVVTLWYRPPDVLLGSTEYSTCLDMWGVGCIFVEMIQGVAAFPGMKDIQDQLERIFLVLGTPNEDTWPGVHSLPHFKPERFTLYSSKNLRQAWNKLSYVNHAEDLASKLLQCSPKNRLSAQAALSHEYFSDLPPRLWELTDMSSIFTVPNVRLQPEAGESMRAFGKNNSYGKSLSNSKH

In this assay the parent is B1. The conditions noted are these: with ccny_human CCNY.
In the case of MCDLIEPQPAEKIGKMKKLRRTLSESFSRIALKKDDTTFDEICVTKMSTRNCQGMDSVIKPLDTIPEDKKVRVQRTQSTFDPFEKPANQVKRVHSENNACINFKTSSTGKESPKVRRHSSPSSPTSPKFGKADSYEKLEKLGEGSYATVYKGKSKVNGKLVALRVIRLQEEEGTPFTAIREASLLKGLKHANIVLLHDIIHTKETLTLVFEYVHTDLCQYMDKHPGGLHPDNVKLFLFQLLRGLSYIHQRYILHRDLKPQNLLISDTGELKLADFGLARAKSVPSHTYSNEVVTLWYRPPDVLLGSTEYSTCLDMWGVGCIFVEMIQGVAAFPGMKDIQDQLERIFLVLGTPNEDTWPGVHSLPHFKPERFTLYSSKNLRQAWNKLSYVNHAEDLASKLLQCSPKNRLSAQAALSHEYFSDLPPRLWELTDMSSIFTVPNVRLQPEAGESMRAFGKNNSYGKSLSNSKH [K164R], the “effect of a mutation on the interaction” value was “decreasing interaction strength”.
